The source of these data is article PMC4299599, “Quantification of cytosolic interactions identifies Ede1 oligomers as key organizers of endocytosis” (Molecular Systems Biology, 2014).

Some results are limits rather than exact numbers.

Series [1] concerns the molecule itself. Nature of the series: fluorescence cross-correlation spectroscopy (FCCS); self-interaction: living diploid yeast cells with one allele fused to (3)myeGFP and one to (3)mCherry, cytoplasm; apparent (effective) KD, to be taken as the upper limit since complexes of one colour are not seen.
Series [2] deals with the molecule itself. As to the kind of experiment: fluorescence cross-correlation spectroscopy (FCCS); in the cytoplasm of living yeast cells; first-named protein green (3myeGFP or 1myeGFP; eGFP for Don1), second red (3mCherry); self-interaction in diploid strains with one allele of each colour; apparent or effective KD (Kdeff) from single-cell measurements; only Kdeff values < 1000 nM are shown; values for self-interactions are upper limits.

Series [3] concerns the molecule itself. Nature of the series: FCS molecular brightness (counts per particle per second); living yeast cells, cytoplasm; brightness of GFP-tagged particles compared with 3myeGFP and Ent2-3myeGFP (monomers) or with wild-type Ede1; average of all particles.
The next series addresses T1, Pan1 (S. cerevisiae, UniProt P32521 1-1480).
T1 construct: Pan1, S. cerevisiae; also called Pan1-1myeGFP; Pan1-3mCherry; source: chromosomally tagged at the endogenous locus, in the cytoplasm of living S. cerevisiae cells
T1 sequence (looked up): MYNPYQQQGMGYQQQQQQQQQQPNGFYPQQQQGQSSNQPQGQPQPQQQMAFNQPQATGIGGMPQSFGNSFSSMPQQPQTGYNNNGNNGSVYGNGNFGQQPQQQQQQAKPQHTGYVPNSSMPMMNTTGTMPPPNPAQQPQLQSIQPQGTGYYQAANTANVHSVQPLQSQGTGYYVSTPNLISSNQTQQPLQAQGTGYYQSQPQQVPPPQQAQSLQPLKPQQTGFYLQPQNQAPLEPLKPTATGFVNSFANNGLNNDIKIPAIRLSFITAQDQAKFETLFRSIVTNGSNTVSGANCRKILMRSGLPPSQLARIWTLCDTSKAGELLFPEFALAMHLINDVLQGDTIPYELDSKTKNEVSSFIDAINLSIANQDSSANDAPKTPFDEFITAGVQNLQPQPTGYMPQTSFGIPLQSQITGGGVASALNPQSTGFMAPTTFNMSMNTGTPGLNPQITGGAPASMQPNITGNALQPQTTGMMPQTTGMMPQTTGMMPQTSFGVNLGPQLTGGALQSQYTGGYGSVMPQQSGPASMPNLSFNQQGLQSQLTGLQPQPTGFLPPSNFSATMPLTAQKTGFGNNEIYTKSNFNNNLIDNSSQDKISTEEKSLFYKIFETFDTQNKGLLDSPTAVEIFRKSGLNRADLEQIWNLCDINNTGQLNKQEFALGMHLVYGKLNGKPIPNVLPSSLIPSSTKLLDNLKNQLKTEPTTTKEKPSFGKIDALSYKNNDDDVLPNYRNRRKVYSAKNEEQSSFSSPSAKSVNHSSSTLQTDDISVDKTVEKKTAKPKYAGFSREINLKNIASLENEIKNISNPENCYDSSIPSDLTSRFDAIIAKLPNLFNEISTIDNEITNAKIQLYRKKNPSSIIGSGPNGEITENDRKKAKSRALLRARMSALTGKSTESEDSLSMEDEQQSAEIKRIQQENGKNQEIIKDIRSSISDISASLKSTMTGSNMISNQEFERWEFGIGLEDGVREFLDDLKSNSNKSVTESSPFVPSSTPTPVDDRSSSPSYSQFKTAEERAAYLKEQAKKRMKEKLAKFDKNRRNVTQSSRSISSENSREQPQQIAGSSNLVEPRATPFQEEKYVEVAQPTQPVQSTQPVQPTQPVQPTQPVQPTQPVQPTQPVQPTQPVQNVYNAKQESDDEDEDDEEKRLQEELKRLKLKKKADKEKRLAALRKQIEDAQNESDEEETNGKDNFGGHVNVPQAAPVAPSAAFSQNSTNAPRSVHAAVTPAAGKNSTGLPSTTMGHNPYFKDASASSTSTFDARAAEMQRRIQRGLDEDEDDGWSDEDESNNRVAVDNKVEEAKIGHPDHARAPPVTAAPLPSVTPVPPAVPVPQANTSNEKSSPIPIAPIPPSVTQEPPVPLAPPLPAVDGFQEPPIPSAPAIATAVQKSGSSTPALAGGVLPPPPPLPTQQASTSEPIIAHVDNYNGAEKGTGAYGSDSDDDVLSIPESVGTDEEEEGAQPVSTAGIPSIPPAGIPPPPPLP
Nature of the series: fluorescence cross-correlation spectroscopy (FCCS); in the cytoplasm of living yeast cells; first-named protein green (3myeGFP or 1myeGFP; eGFP for Don1), second red (3mCherry); self-interaction in diploid strains with one allele of each colour; apparent or effective KD (Kdeff) from single-cell measurements; only Kdeff values < 1000 nM are shown; values for self-interactions are upper limits. Particulars: partners not purified.

B1: ede1Δ591–1381 (myeGFP / mCherry fusions) (domain or fragment, S. cerevisiae, UniProt P34216 1-590, looked up)
chain: MASITFRTPLSSQEQAFYNQKFHQLDTEDLGVVTGEAVRPLFASSGLPGQLLSQVWATVDIDNKGFLNLNEFSAALRMIAQLQNAPNQPISAALYESTPTQLASFSINQNPAPMQSGSATGNTNNTDIPALSSNDIAKFSQLFDRTAKGAQTVAGDKAKDIFLKARLPNQTLGEIWALCDRDASGVLDKSEFIMAMYLIQLCMSHHPSMNTPPAVLPTQLWDSIRLEPVVVNQPNRTTPLSANSTGVSSLTRHSTISRLSTGAFSNAASDWSLSFEKKQQFDAIFDSLDKQHAGSLSSAVLVPFFLSSRLNQETLATIWDLADIHNNAEFTKLEFAIAMFLIQKKNAGVELPDVIPNELLQSPALGLYPPNPLPQQQSAPQIAIPSRASKPSLQDMPHQVSAPAVNTQPTVPQVLPQNSNNGSLNDLLALNPSFSSPSPTKAQTVVQNNTNNSFSYDNNNGQATLQQQQPQQPPPLTHSSSGLKKFTPTSNFGQSIIKEEPEEQEQLRESSDTFSAQPPPVPKHASSPVKRTASTTLPQVPNFSVFSMPAGAATSAATGAAVGAAVGAAALGASAFSRSSNNAFKNQDLF
notes: 1myeGFP fusion for FCS; diploid with one myeGFP and one mCherry allele for FCCS; Each copy carries one tag; also called ede1^Δ591–1391; source: S. cerevisiae, endogenously expressed truncation mutant, in living cells; not shown: myeGFP, C-terminal, kept; mCherry, C-terminal, kept
In the case of B1, the Kd in series [1] was greater than 1000 nM.

B2: Bbc1 (natural protein, S. cerevisiae, UniProt P47068 1-1157, looked up)
chain: MSEPEVPFKVVAQFPYKSDYEDDLNFEKDQEIIVTSVEDAEWYFGEYQDSNGDVIEGIFPKSFVAVQGSEVGKEAESSPNTGSTEQRTIQPEVEQKDLPEPISPETKKETLSGPVPVPAATVPVPAATVPVPAATAVSAQVQHDSSSGNGERKVPMDSPKLKARLSMFNQDITEQVPLPKSTHLDLENIPVKKTIVADAPKYYVPPGIPTNDTSNLERKKSLKENEKKIVPEPINRAQVESGRIETENDQLKKDLPQMSLKERIALLQEQQRLQAAREEELLRKKAKLEQEHERSAVNKNEPYTETEEAEENEKTEPKPEFTPETEHNEEPQMELLAHKEITKTSREADEGTNDIEKEQFLDEYTKENQKVEESQADEARGENVAEESEIGYGHEDREGDNDEEKEEEDSEENRRAALRERMAKLSGASRFGAPVGFNPFGMASGVGNKPSEEPKKKQHKEKEEEEPEQLQELPRAIPVMPFVDPSSNPFFRKSNLSEKNQPTETKTLDPHATTEHEQKQEHGTHAYHNLAAVDNAHPEYSDHDSDEDTDDHEFEDANDGLRKHSMVEQAFQIGNNESENVNSGEKIYPQEPPISHRTAEVSHDIENSSQNTTGNVLPVSSPQTRVARNGSINSLTKSISGENRRKSINEYHDTVSTNSSALTETAQDISMAAPAAPVLSKVSHPEDKVPPHPVPSAPSAPPVPSAPSVPSAPPVPPAPPALSAPSVPPVPPVPPVSSAPPALSAPSIPPVPPTPPAPPAPPAPLALPKHNEVEEHVKSSAPLPPVSEEYHPMPNTAPPLPRAPPVPPATFEFDSEPTATHSHTAPSPPPHQNVTASTPSMMSTQQRVPTSVLSGAEKESRTLPPHVPSLTNRPVDSFHESDTTPKVASIRRSTTHDVGEISNNVKIEFNAQERWWINKSAPPAISNLKLNFLMEIDDHFISKRLHQKWVVRDFYFLFENYSQLRFSLTFNSTSPEKTVTTLQERFPSPVETQSARILDEYAQRFNAKVVEKSHSLINSHIGAKNFVSQIVSEFKDEVIQPIGARTFGATILSYKPEEGIEQLMKSLQKIKPGDILVIRKAKFEAHKKIGKNEIINVGMDSAAPYSSVVTDYDFTKNKFRVIENHEGKIIQNSYKLSHMKSGKLKVFRIVARGYVGW
notes: Bbc1, S. cerevisiae; also called Bbc1-3myeGFP; Bbc1-3mCherry; source: chromosomally tagged at the endogenous locus, in the cytoplasm of living S. cerevisiae cells
As for B2, the Kd in series [2] turned out to be 115 nM.

B3: Ede1 (Ede1-3myeGFP / Ede1-3mCherry) (natural protein, S. cerevisiae, UniProt P34216 1-1381, looked up)
chain: MASITFRTPLSSQEQAFYNQKFHQLDTEDLGVVTGEAVRPLFASSGLPGQLLSQVWATVDIDNKGFLNLNEFSAALRMIAQLQNAPNQPISAALYESTPTQLASFSINQNPAPMQSGSATGNTNNTDIPALSSNDIAKFSQLFDRTAKGAQTVAGDKAKDIFLKARLPNQTLGEIWALCDRDASGVLDKSEFIMAMYLIQLCMSHHPSMNTPPAVLPTQLWDSIRLEPVVVNQPNRTTPLSANSTGVSSLTRHSTISRLSTGAFSNAASDWSLSFEKKQQFDAIFDSLDKQHAGSLSSAVLVPFFLSSRLNQETLATIWDLADIHNNAEFTKLEFAIAMFLIQKKNAGVELPDVIPNELLQSPALGLYPPNPLPQQQSAPQIAIPSRASKPSLQDMPHQVSAPAVNTQPTVPQVLPQNSNNGSLNDLLALNPSFSSPSPTKAQTVVQNNTNNSFSYDNNNGQATLQQQQPQQPPPLTHSSSGLKKFTPTSNFGQSIIKEEPEEQEQLRESSDTFSAQPPPVPKHASSPVKRTASTTLPQVPNFSVFSMPAGAATSAATGAAVGAAVGAAALGASAFSRSSNNAFKNQDLFADGEASAQLSNATTEMANLSNQVNSLSKQASITNDKKSRATQELKRVTEMKNSIQIKLNNLRSTHDQNVKQTEQLEAQVLQVNKENETLAQQLAVSEANYHAAESKLNELTTDLQESQTKNAELKEQITNLNSMTASLQSQLNEKQQQVKQERSMVDVNSKQLELNQVTVANLQKEIDGLGEKISVYLTKQKELNDYQKTVEEQHAQLQAKYQDLSNKDTDLTDREKQLEERNRQIEEQENLYHQHVSKLQEMFDDLSQRKASFEKADQELKERNIEYANNVRELSERQMNLAMGQLPEDAKDIIAKSASNTDTTTKEATSRGNVHEDTVSKFVETTVENSNLNVNRVKDDEEKTERTESDVFDRDVPTLGSQSDSENANTNNGTQSGNETANPNLTETLSDRFDGDLNEYGIPRSQSLTSSVANNAPQSVRDDVELPETLEERDTINNTANRDNTGNLSHIPGEWEATPATASTDVLSNETTEVIEDGSTTKRANSNEDGESVSSIQESPKISAQPKAKTINEEFPPIQELHIDESDSSSSDDDEFEDTREIPSATVKTLQTPYNAQPTSSLEIHTEQVIKYPAPGTSPSHNEGNSKKASTNSILPVKDEFDDEFAGLEQAAVEEDNGADSESEFENVANAGSMEQFETIDHKDLDDELQMNAFTGTLTSSSNPTIPKPQVQQQSTSDPAQVSNDEWDEIFAGFGNSKAEPTKVATPSIPQQPIPLKNDPIVDASLSKGPIVNRGVATTPKSLAVEELSGMGFTEEEAHNALEKCNWDLEAATNFLLDSA
notes: Ede1, S. cerevisiae, homolog of mammalian Eps15; expressed from its own locus; also called wild-type Ede1; full-length Ede1; source: S. cerevisiae, chromosomally tagged at the endogenous locus, in living cells; not shown: 3myeGFP, C-terminal, kept; 3mCherry, C-terminal, kept
For B3, the Kd in series [1] is 127 nM. For the same molecule, the “molecular brightness per particle relative to 3myeGFP” value in series [3] was roughly 2.5 fold.

B4: Sla2 (natural protein, S. cerevisiae, UniProt P33338 1-968, looked up)
chain: MSRIDSDLQKALKKACSVEETAPKRKHVRACIVYTWDHQSSKAVFTTLKTLPLANDEVQLFKMLIVLHKIIQEGHPSALAEAIRDRDWIRSLGRVHSGGSSYSKLIREYVRYLVLKLDFHAHHRGFNNGTFEYEEYVSLVSVSDPDEGYETILDLMSLQDSLDEFSQIIFASIQSERRNTECKISALIPLIAESYGIYKFITSMLRAMHRQLNDAEGDAALQPLKERYELQHARLFEFYADCSSVKYLTTLVTIPKLPVDAPDVFLINDVDESKEIKFKKREPSVTPARTPARTPTPTPPVVAEPAISPRPVSQRTTSTPTGYLQTMPTGATTGMMIPTATGAANAIFPQATAQMQPDFWANQQAQFANEQNRLEQERVQQLQQQQAQQELFQQQLQKAQQDMMNMQLQQQNQHQNDLIALTNQYEKDQALLQQYDQRVQQLESEITTMDSTASKQLANKDEQLTALQDQLDVWERKYESLAKLYSQLRQEHLNLLPRFKKLQLKVNSAQESIQKKEQLEHKLKQKDLQMAELVKDRDRARLELERSINNAEADSAAATAAAETMTQDKMNPILDAILESGINTIQESVYNLDSPLSWSGPLTPPTFLLSLLESTSENATEFATSFNNLIVDGLAHGDQTEVIHCVSDFSTSMATLVTNSKAYAVTTLPQEQSDQILTLVKRCAREAQYFFEDLMSENLNQVGDEEKTDIVINANVDMQEKLQELSLAIEPLLNIQSVKSNKETNPHSELVATADKIVKSSEHLRVDVPKPLLSLALMIIDAVVALVKAAIQCQNEIATTTSIPLNQFYLKNSRWTEGLISAAKAVAGATNVLITTASKLITSEDNENTSPEQFIVASKEVAASTIQLVAASRVKTSIHSKAQDKLEHCSKDVTDACRSLGNHVMGMIEDDHSTSQQQQPLDFTSEHTLKTAEMEQQVEILKLEQSLSNARKRLGEIRRHAYYNQDDD
notes: Sla2, S. cerevisiae; also called Sla2-3myeGFP; Sla2-3mCherry; source: chromosomally tagged at the endogenous locus, in the cytoplasm of living S. cerevisiae cells
Turning to B4, the Kd with Pan1 amounted to 539 nM; in series [2], 133 nM.
